Reference: article PMC9242648
Where a chain is given by its changes, count along the chain named. Names and notes keep the numbering of the source.

T1: human regulatory light chain (MYL2), P10916
T1 chain: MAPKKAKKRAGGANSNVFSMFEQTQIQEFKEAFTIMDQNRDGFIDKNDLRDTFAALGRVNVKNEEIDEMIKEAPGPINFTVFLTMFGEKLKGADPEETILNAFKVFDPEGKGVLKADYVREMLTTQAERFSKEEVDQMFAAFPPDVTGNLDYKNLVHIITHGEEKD

B1: human β-cardiac myosin 2-hep heavy chain, wild type A797T (protein)
chain: MGDSEMAVFGAAAPYLRKSEKERLEAQTRPFDLKKDVFVPDDKQEFVKAKIVSREGGKVTAETEYGKTVTVKEDQVMQQNPPKFDKIEDMAMLTFLHEPAVLYNLKDRYGSWMIYTYSGLFCVTVNPYKWLPVYTPEVVAAYRGKKRSEAPPHIFSISDNAYQYMLTDRENQSILITGESGAGKTVNTKRVIQYFAVIAAIGDRSKKDQSPGKGTLEDQIIQANPALEAFGNAKTVRNDNSSRFGKFIRIHFGATGKLASADIETYLLEKSRVIFQLKAERDYHIFYQILSNKKPELLDMLLITNNPYDYAFISQGETTVASIDDAEELMATDNAFDVLGFTSEEKNSMYKLTGAIMHFGNMKFKLKQREEQAEPDGTEEADKSAYLMGLNSADLLKGLCHPRVKVGNEYVTKGQNVQQVIYATGALAKAVYERMFNWMVTRINATLETKQPRQYFIGVLDIAGFEIFDFNSFEQLCINFTNEKLQQFFNHHMFVLEQEEYKKEGIEWTFIDFGMDLQACIDLIEKPMGIMSILEEECMFPKATDMTFKAKLFDNHLGKSANFQKPRNIKGKPEAHFSLIHYAGIVDYNIIGWLQKNKDPLNETVVGLYQKSSLKLLSTLFANYAGADAPIEKGKGKAKKGSSFQTVSALHRENLNKLMTNLRSTHPHFVRCIIPNETKSPGVMDNPLVMHQLRCNGVLEGIRICRKGFPNRILYGDFRQRYRILNPAAIPEGQFIDSRKGAEKLLSSLDIDHNQYKFGHTKVFFKAGLLGLLEEMRDERLSRIITRIQAQSRGVLTRMEYKKLLERRDSLLVIQWNIRAFMGVKNWPWMKLYFKIKPLLKSAEREKEMASMKEELEDKVEELLSKNYHLENEVARL
B2: human β-cardiac myosin 2-hep heavy chain, wild type S782N (protein)
chain: B1 chain with S782N, T797A
B3: human β-cardiac myosin 2-hep heavy chain, wild type F834L (protein)
chain: B1 chain with T797A, F834L

Target: human essential light chain (MYL3), P08590
Sequence (P08590 whole entry): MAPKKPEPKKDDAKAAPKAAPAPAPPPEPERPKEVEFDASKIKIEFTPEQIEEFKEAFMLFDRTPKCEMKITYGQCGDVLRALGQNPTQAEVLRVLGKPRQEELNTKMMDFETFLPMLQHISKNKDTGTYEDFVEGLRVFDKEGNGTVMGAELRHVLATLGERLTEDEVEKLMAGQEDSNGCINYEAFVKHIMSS
Experiment: Coomassie SDS-PAGE gel-based light chain loading assay
Conditions: chain shown with the change;; read off a plot

Binder | ratio to parent
B1 | 0.96
B2 | 1.1
B3 | 1

Target: T1, human regulatory light chain (MYL2), …
Experiment: as above
Conditions: chain shown with the change;; read off a plot

Binder | ratio to parent
B1 | 0.97
B2 | 1.2
B3 | 1.1
